How the values were obtained:
[1] = molecular target: aprataxin FHA domain, recombinant, Lys38Ala (human) (UniProt Q7Z2E3); experiment: ITC
[2] = molecular target: aprataxin FHA domain, recombinant, wild type (human) (UniProt Q7Z2E3); experiment: ITC

| Substance | Kd [1] | Kd [2] |
| --- | --- | --- |
| MDC1 14-residue peptide phosphorylated on S329 and T331 | 80 µM | 5.6 µM |
| MDC1 14-residue peptide phosphorylated only on T331 |  | 58 µM |

From PMC2836575
